US20190183976A1 (GPCR THERAPEUTICS, published 2019)

Biological target: T1, CXCR4-VN (human, UniProt P61073 1-352)
T1 construct: whole, on cells; Adenovirus-expressed in U-2 OS cells; also called CXCR4 fused with N-terminal fragment of Venus; not shown: VNm10, N-terminal fragment of Venus (VN154 variant with L46F and L64F)
Assay: BiFC, U-2 OS cells; score=(positive cells/total cells)x100
Description: Images of about 200 cells from each well were analyzed with Multi-target analysis software in IN Cell Developer ToolBox (GE Healthcare, Waukesha, Wis.). Cell boundary was marked based on Hoechst signal, and fluorescence intensity per cell was measured. Cells with fluorescence intensities higher than background level were considered as BiFC positive cells. […] Positive cells were determined, and positive cell count ratio (“BiFC score”) was calculated as (positive cells/total cells)×100 (see Table 4 below).

B1: ADRA1A-VC (receptor, human, UniProt P35348 1-466, looked up)
chain: MVFLSGNASDSSNCTQPPAPVNISKAILLGVILGGLILFGVLGNILVILSVACHRHLHSVTHYYIVNLAVADLLLTSTVLPFSAIFEVLGYWAFGRVFCNIWAAVDVLCCTASIMGLCIISIDRYIGVSYPLRYPTIVTQRRGLMALLCVWALSLVISIGPLFGWRQPAPEDETICQINEEPGYVLFSALGSFYLPLAIILVMYCRVYVVAKRESRGLKSGLKTDKSDSEQVTLRIHRKNAPAGGSGMASAKTKTHFSVRLLKFSREKKAAKTLGIVVGCFVLCWLPFFLVMPIGSFFPDFKPSETVFKIVFWLGYLNSCINPIIYPCSSQEFKKAFQNVLRIQCLCRKQSSKHALGYTLHPPSQAVEGQHKDMVRIPVGSRETFYRISKTDGVCEWKFFSSMPRGSARITVSKDQSSCTTARVRSKSFLQVCCCVGPSTPSLDKNHQVPTIKVHTISLSENGEEV
notes: whole, on cells; Adenovirus-expressed in U-2 OS cells; not shown: VC155, C-terminal fragment of Venus
With B1 the BiFC score was 7.85.
